Measurements published in patent US20040018198A1 (Amgen, published 2004).

B1: AB-MN-22.30 (antibody, human IgG2, V domains shown)
VH: QVQLVESGGGVVQPGRSLRLSCAASGFTFSSYAMHWVRQAPGKGLEWVAVIWYDGSTKYYADSVKGRFTISRDNSKNTLYLQMNSLRAEDTAVYYCARDRGLLWFGELSPHYGMDVWGQGTTVTVSS
VL: DIQMTQSPSSLSASVGDRVTITCRASQGIRNDLGWYQQKPGKAPKRLIYAASSLQSGVPSRFSGSGSGTDFTLTISSLQPEDFATYYCLQHYSYPLTFGGGTKVEIK
notes: also called AX014H22-30
B2: AB-MN-22.29 (antibody, human IgG2, V domains shown)
VH: QVQLQESGPGLVKPSETLSLTCTVSGGSISSYYWSWIRQPAGKGLEWIGRIYTSGSTNYNPSLKSRVTMSVDTSKNQFSLKLSSVTAADTAVYYCARDGQWLEDYGMDVWGQGTTVTVSS
VL: DIQMTQSPSSVSASVGDRVTITCRASQGISSWLAWFQQKPGKAPKLLIYAASSLQSGVPSRFSGSGSGTDFTLTISSLQPEDFATYYCQQANSFPITFGQGTRLEIK
notes: also called AX014H22-29

Assays:
[1] = target: CA-IX-His-ECD (his-V5 tagged version of the CA IX protein, extracellular domain) (human, UniProt Q16790 38-414); experiment: ELISA on CA-IX-His-ECD
[2] = target: CA IX catalytic domain protein (CA9-CD) (human, UniProt Q16790 138-391); experiment: ELISA on CA9-CD (catalytic domain)

Binder	OD [1]	OD [2]
B1	2.2 OD	2.46 OD
B2	1.96 OD	2.52 OD
